Test [1] concerns the target T1, IL-13Rα(NR4) expressed in CTLL cells (high affinity IL-13 receptor; cells also carry the IL-4 receptor) (murine, UniProt P16382 26-810). Put plainly: Scatchard analysis of 125I-IL-13 binding to CTLL cells expressing the IL-13Rα(NR4). Here is the method: Data have been normalised to 1×10⁴ COS cells and 1×10⁶ CTLL cells and binding was carried out on ice for 2 to 4 hours.
A likely candidate based on previous studies is the IL-4Rα.

Test [2] deals with T1, IL-13Rα(NR4) expressed in CTLL cells …. Put plainly: unlabelled IL-13 competing with 125I-IL-13 for binding to CTLL cells expressing the IL-13Rα(NR4).
The target in test [3] is T2, murine NR4 (IL-13 receptor α-chain, IL-13Rα) expressed in COS cells (murine, UniProt O09030 27-424).
T2 construct: also called IL-13Rα(NR4)
T2 sequence: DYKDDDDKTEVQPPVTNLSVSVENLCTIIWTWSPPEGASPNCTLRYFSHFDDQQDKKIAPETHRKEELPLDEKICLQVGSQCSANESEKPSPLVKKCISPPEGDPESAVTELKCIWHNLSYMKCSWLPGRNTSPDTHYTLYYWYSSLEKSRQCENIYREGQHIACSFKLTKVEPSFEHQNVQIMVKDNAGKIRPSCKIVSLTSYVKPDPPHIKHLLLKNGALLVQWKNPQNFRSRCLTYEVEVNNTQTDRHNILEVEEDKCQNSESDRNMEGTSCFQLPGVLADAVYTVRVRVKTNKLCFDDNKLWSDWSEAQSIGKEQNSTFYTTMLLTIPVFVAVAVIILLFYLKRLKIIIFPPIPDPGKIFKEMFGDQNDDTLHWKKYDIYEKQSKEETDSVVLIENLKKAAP
Put plainly: Scatchard analysis of 125I-IL-13 binding to COS cells expressing NR4.

The source of these data is patent US20020090682A1 (AMRAD OPERATIONS, published 2002).

T1 sequence (P16382 26-810): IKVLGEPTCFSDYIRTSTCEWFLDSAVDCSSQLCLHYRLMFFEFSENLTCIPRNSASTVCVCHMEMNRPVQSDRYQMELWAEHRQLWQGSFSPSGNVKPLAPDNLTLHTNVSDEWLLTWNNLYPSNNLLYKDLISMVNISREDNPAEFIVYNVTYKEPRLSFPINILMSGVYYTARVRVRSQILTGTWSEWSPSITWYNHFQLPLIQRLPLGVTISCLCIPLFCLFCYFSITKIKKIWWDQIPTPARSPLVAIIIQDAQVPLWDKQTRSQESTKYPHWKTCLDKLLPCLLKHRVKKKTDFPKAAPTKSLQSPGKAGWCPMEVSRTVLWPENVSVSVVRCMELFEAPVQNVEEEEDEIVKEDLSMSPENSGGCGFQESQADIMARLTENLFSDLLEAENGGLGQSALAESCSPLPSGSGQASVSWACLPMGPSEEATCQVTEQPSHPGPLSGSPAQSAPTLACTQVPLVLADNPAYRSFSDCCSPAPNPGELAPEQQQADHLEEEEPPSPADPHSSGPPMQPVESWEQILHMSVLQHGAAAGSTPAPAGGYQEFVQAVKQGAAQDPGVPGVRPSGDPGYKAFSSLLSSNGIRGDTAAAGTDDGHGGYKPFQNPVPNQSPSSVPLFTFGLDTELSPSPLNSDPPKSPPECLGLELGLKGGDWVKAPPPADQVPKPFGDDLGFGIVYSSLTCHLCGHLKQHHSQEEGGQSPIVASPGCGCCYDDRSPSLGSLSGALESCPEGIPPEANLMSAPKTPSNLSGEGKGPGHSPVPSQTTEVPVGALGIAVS

B1: IL-13 (obtained commercially, R & D Systems) (ligand)
chain: APGPVPRSVSLPLTLKELIEELSNITQDQTPLCNGSMVWSVDLAAGGFCVALDSLTNISNCNAIYRTQRILHGLCNRKAPTTVSSLPDTKIEVAHFITKLLSYTKQLFRHGPF
modifications: Radioiodinated (125I, iodine monochloride method) in the labelled form.
notes: the receptor and the cells are murine; also called unlabelled IL-13
Take B1: the Kd is roughly 0.075 nM in test [1] and 2 to 10 nM in test [3]. Also, the IC50 in test [2] was roughly 0.3 nM.
